Data on seven molecules can be found in patent US20160024210A1 (AstraZeneca / MedImmune, published 2016).

For assay [1], the target named is T1, H7CR-GFP fusion protein on transfected CHO cells (Homo sapiens (Human), UniProt Q96BF3 23-282).
T1 construct: not shown: GFP part
T1 sequence: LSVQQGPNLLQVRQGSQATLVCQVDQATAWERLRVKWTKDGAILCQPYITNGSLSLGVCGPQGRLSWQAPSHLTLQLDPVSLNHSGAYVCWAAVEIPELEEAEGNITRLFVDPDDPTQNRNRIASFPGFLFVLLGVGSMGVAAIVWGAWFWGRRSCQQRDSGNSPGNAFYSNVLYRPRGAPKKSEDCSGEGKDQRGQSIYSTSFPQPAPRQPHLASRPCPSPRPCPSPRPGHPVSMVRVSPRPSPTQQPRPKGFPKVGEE
The experiment in a line: flow cytometry, 5 µg/ml variant on H7CR-GFP transfected CHO cells, anti-hIg PE secondary antibody [row HC1-3, column LC1-1]. As to the method:
(§1) 5 μg/ml antibodies from thirty-six variants were incubated with H7CR-GFP fusion protein transfected CHO cells for 30 min at room temperature. Cells were then washed twice with 2 ml flow cytometry buffer, and resuspended in 100 μl flow cytometry buffer. 1 μl anti-hIg PE secondary antibody (Biolegend) was added and incubated with the cells for 15 mins Samples were then washed and resuspended in 100 μl flow cytometry buffer. Flow Cytometry data was acquired using BD Canto (BD Biosciences) in plate format and analyzed by FlowJo software.
A general note: In flow cytometry, cells or beads pass a laser one at a time.

The target of assay [2] is T2, human H7CR (B7-H7 counter-receptor) (human, UniProt Q96BF3 23-282).
T2 construct: Used for H7CR on CHO.hH7CR transfectants, human T cells and tonsil tissue; also called B7-H7CR; CD28H
T2 sequence: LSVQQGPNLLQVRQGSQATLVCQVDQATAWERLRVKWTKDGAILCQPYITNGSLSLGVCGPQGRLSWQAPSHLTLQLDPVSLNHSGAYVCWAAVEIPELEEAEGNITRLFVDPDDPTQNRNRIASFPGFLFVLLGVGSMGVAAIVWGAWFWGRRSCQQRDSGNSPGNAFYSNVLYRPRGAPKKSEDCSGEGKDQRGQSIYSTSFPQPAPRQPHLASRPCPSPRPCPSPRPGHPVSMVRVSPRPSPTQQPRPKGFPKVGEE
The experiment in a line: binding to human H7CR as endogenously expressed on the surface of a cell.

Assay [3] addresses T1, H7CR-GFP fusion protein on transfected …. The experiment in a line: flow cytometry, 5 µg/ml variant on H7CR-GFP transfected CHO cells, anti-hIg PE secondary antibody [row HC1-2, column LC2-2]. As to the method: as §1
Assay [4] has the same target. The experiment in a line: flow cytometry, 5 µg/ml variant on H7CR-GFP transfected CHO cells, anti-hIg PE secondary antibody [row HC1-3, column LC2-2]. As to the method: as §1
For assay [5] the target is unchanged. The experiment in a line: flow cytometry, 5 µg/ml variant on H7CR-GFP transfected CHO cells, anti-hIg PE secondary antibody [row HC1-3, column LC2-1]. The protocol: as §1
Assay [6] has the same target. The experiment in a line: flow cytometry, 5 µg/ml variant on H7CR-GFP transfected CHO cells, anti-hIg PE secondary antibody [row HC1-3, column LC1-2]. The protocol: as §1
Assay [7] shares this target. The experiment in a line: flow cytometry, 5 µg/ml variant on H7CR-GFP transfected CHO cells, anti-hIg PE secondary antibody [row HC1-2, column LC2-3]. As to the method: as §1
The target is the same in assay [8]. The experiment in a line: flow cytometry, 5 µg/ml variant on H7CR-GFP transfected CHO cells, anti-hIg PE secondary antibody [row HC1-3, column LC1-3]. The protocol: as §1

B1: 4.5 humanized variant 13 (HC1-3 / LC1-1) (antibody, V domains shown)
VH: QVQLQESGPGLVKPSQTLSLTCTVSGFSITTGGYYWNWIRQFPGKKLEWMGYIYTSGRTSYNPSLKSRVTISRDTSKNQFSLKLSSVTAADTAVYYCADMADKGGWFAYWGQGTLVTVSS
VL: DIVMTQSPDSLAVSLGERATINCKSSQSLFSSNTKRNYLAWYQQKPGQPPKLLIYHASTRESGVPDRFSGSGSGTDFTLTISSLQAEDVAVYYCQQHYETPLTFGQGTRLEIK
notes: Variable domains only; detected with anti-hIg secondary; also called VH1C / VL1A
B1: the binding result in assay [1] and in assay [2] was “binds” throughout.

B2: 4.5 humanized variant 11 (HC1-2 / LC2-2) (antibody, V domains shown)
VH: QVQLQESGPGLVKPSQTLSLTCTVSGFSITTGGYYWNWIRQHPGKKLEWIGYIYTSGRTSYNPSLKSRVTISRDTSKNQFSLKLSSVTAADTAVYYCADMADKGGWFAYWGQGTLVTVSS
VL: DIVMTQTPLSLPVTPGEPASISCRSSQSLFSSNTKRNYLNWYLQKPGQSPKLLIYHASTRLSGVPDRFSGSGSGTDFTLKISRVEAEDVGDYFCQQHYETPLTFGDGTRLEIK
notes: Variable domains only; detected with anti-hIg secondary; also called VH1B / VL2B
Consider B2, for which the binding result in assay [2] and in assay [3] was “binds” in each case.

B3: 4.5 humanized variant 17 (HC1-3 / LC2-2) (antibody, V domains shown)
VH: QVQLQESGPGLVKPSQTLSLTCTVSGFSITTGGYYWNWIRQFPGKKLEWMGYIYTSGRTSYNPSLKSRVTISRDTSKNQFSLKLSSVTAADTAVYYCADMADKGGWFAYWGQGTLVTVSS
VL: DIVMTQTPLSLPVTPGEPASISCRSSQSLFSSNTKRNYLNWYLQKPGQSPKLLIYHASTRLSGVPDRFSGSGSGTDFTLKISRVEAEDVGDYFCQQHYETPLTFGDGTRLEIK
notes: Variable domains only; detected with anti-hIg secondary; also called VH1C / VL2B
Consider B3, for which the binding result in assay [4] and in assay [2] was “binds” each time.

B4: 4.5 humanized variant 16 (HC1-3 / LC2-1) (antibody, V domains shown)
VH: QVQLQESGPGLVKPSQTLSLTCTVSGFSITTGGYYWNWIRQFPGKKLEWMGYIYTSGRTSYNPSLKSRVTISRDTSKNQFSLKLSSVTAADTAVYYCADMADKGGWFAYWGQGTLVTVSS
VL: DIVMTQTPLSLPVTPGEPASISCRSSQSLFSSNTKRNYLDWYLQKPGQSPQLLIYHASYRASGVPDRFSGSGSGTDFTLKISRVEAEDVGVYYCQQHYETPLTFGQGTRLEIK
notes: Variable domains only; detected with anti-hIg secondary; also called VH1C / VL2A
For the molecule B4, the binding result in assay [5] and in assay [2] was “binds” throughout.

B5: 4.5 humanized variant 14 (HC1-3 / LC1-2) (antibody, V domains shown)
VH: QVQLQESGPGLVKPSQTLSLTCTVSGFSITTGGYYWNWIRQFPGKKLEWMGYIYTSGRTSYNPSLKSRVTISRDTSKNQFSLKLSSVTAADTAVYYCADMADKGGWFAYWGQGTLVTVSS
VL: DIVMTQSPDSLAVSLGERATINCKSSQSLFSSNTKRNYLNWYQQKPGQPPKLLIYHASTRLSGVPDRFSGSGSGTDFTLTISSLQAEDVADYFCQQHYETPLTFGDGTRLEIK
notes: Variable domains only; detected with anti-hIg secondary; also called VH1C / VL1B
For the molecule B5, the binding result in assay [2] and in assay [6] was “binds” each time.

B6: 4.5 humanized variant 12 (HC1-2 / LC2-3) (antibody, V domains shown)
VH: QVQLQESGPGLVKPSQTLSLTCTVSGFSITTGGYYWNWIRQHPGKKLEWIGYIYTSGRTSYNPSLKSRVTISRDTSKNQFSLKLSSVTAADTAVYYCADMADKGGWFAYWGQGTLVTVSS
VL: DIVMTQTPSSLPVTPGEPASISCLSSQSLFSSNTKRNYLNWYLQKPGQSPKLLIYHASTRLSGVPDRFSGSGSGTDFTLKISRVEAEDVGDYFCQQHYETPLTFGDGTRLEIK
notes: Variable domains only; detected with anti-hIg secondary; also called VH1B / VL2C
B6: the binding result in assay [7] and in assay [2] was “binds” throughout.

B7: 4.5 humanized variant 15 (HC1-3 / LC1-3) (antibody, V domains shown)
VH: QVQLQESGPGLVKPSQTLSLTCTVSGFSITTGGYYWNWIRQFPGKKLEWMGYIYTSGRTSYNPSLKSRVTISRDTSKNQFSLKLSSVTAADTAVYYCADMADKGGWFAYWGQGTLVTVSS
VL: DIVMTQSPDSLAVSLGERATINCLSSQSLFSSNTKRNYLNWYQQKPGQSPKLLIYHASTRLSGVPDRFSGSGSGTDFTLTISSLQAEDVADYFCQQHYETPLTFGDGTRLEIK
notes: Variable domains only; detected with anti-hIg secondary; also called VH1C / VL1C
As to B7, the binding result in assay [2] and in assay [8] was “binds” in each case.
